This assay has as its target STX17-Flag (UniProt P56962). Description: co-IP.

The substance “STING-HA C148A (from UniProt Q86WV6 1-379) (natural protein)” returned a reduction of the co-immunoprecipitated interaction against STING WT of 50%.
